According to the supplement of paper PMC12042874:
± gives the uncertainty stated by the source.

Test: amyloid nucleation score (Sup35N fusion, yeast selection) (log enrichment); library NNK3; higher = more nucleation; inactive = no reads after selection
Summary of the method: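 Peptides of 20 random codons fused to Sup35N were expressed in psi-negative yeast, induced 24 hours with 100 μM copper sulfate, then grown 7 days at 30°C on medium lacking adenine and uracil. Input and output plasmid inserts were Illumina-sequenced. Nucleation score is the DiMSum log enrichment of output over input reads, centred on the mode score of non-aggregating sequences, excluding sequences with under 100 input reads. Random libraries had three technical output replicates.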

Substance | amyloid nucleation score
FVLICGYFIFIWTVSFNCYW | inactive
RTDLWRIGDVANWIYALP | inactive
MWWGLAPIFWLLITTTDCGY | inactive
SNFTTPLHE | inactive
VYLHIVHCMGYVNDQGRNRS | inactive
IGGRTDNSELTCTRGMRFLC | inactive
TDSNYNFNC | 0.214 ± 0.34
FGAKR | 0.909 ± 0.18
LAASLSGIYCPSLAWRGLKE | inactive
LLNWSYIKRLFLVGIKSGHR | inactive
ILRNMDGRRNSVVRDVVRVK | inactive
SLSNVGLANFLFSRPSLRSY | inactive
TSILEWVSFDGSM | inactive
HSFTAMLICSAYASAARYLR | inactive
WLVFKSVFVDRM | inactive
NYFGPGKQWPID | inactive
VLSGNFNTSDFLLMFLITSQ | inactive
FTPARRLSRLIVFCFG | inactive
QWKSSLDWRRCW | inactive
RLGFRRIRIIRSSGFSEEWH | 0.224 ± 0.39
NVRLYHFSGET | 0.031 ± 0.41
WESLIGLWASAGMIWVHWGS | inactive
SHRFLDNFRFTMYTDVLGIE | inactive
CSGQVQ | inactive
YEQHSY | inactive
GNGNFIRY | inactive
LVVSVCKK | inactive

Substance | amyloid nucleation score
QVLCWFISTADLLLAK | inactive
RVIRNQSVRTPP | inactive
FIVPWLFICRVVRNCVDSAV | inactive
VQGLGGNWW | inactive
RYSDHRGIKAVGFAHCFL | inactive
SLKPLVYMGLST | inactive
FFGWSSRVSSACAVPVEINS | inactive
HFHFLGCDSLGIVVGEWSDH | 0.94 ± 0.18
VVCLFRVRYRW | 1.48 ± 0.12
RLYAALMFSSVRLCACVALV | inactive
EDLNPSSVLYRPSIDFM | inactive
MKLSVLNVWNSRWGLQTA | inactive
QYLTRVHSPEDGTMA | 0.125 ± 0.75
SISRLCVRMRIYKRTVAIYL | inactive
ITWTRGDVGQTHNSAMLSHT | inactive
RGFFSHWSFDVTHYVLVRTL | inactive
GKSRFRLRDAWWRLVTQQRR | inactive
MILLHVVCSVFPVRGFVVLA | inactive
SSLFLDCGFGV | inactive
ESCRWLLVFKMVCWQ | inactive
CSPGTSCFGIKPRSSLSTTI | inactive
YGSSHYPYNSY | inactive
SMRYVTLKPNF | inactive
SWLKVCRQGYGDSSIRYRLL | inactive
YLFHSEGHWRDPHSLPSYLT | inactive
VFFLNIAIIRVECSYPLVRK | -0.223 ± 0.75
NPKSSPVVTFWGTGYFSAGV | inactive

Substance | amyloid nucleation score
SVLFMRRLYSRMA | inactive
QELQYLKAGSKF | inactive
IGNLLLGCRPSQNSLRAHTS | inactive
PHAYTVIDSSRFRPKERLCG | inactive
FMKCDTTSAAGCRRSSSRDK | inactive
VMSFVFNTSLWSMYIRIGSP | inactive
SVYLGFIVGSVHPTHVISMR | inactive
SFICVSSDLCARARVGDSSR | inactive
GSFITSNA | inactive
PEKMFPSPVTATRFANCVL | inactive
DWEARCCREVTGNGVFESQK | inactive
DSRLSAEYMVRMGKVYIDDS | inactive
TSFGPKLPTGVFVCEGSNDR | inactive
DTYMISNVAGNSRYALHGFV | inactive
EPESTRMGLSTTILPVFRCL | -0.158 ± 0.83
WMELTVIQCWMAA | inactive
LGNSAKVVLRWVEGVGLGVA | inactive
FNHSRYDSVFWFVVHPSYEG | inactive
VEKCSVCLPTFEGWPLSKRF | inactive
IVGDGDGQTCCVSRSLCGMV | inactive
FRYLNLKKDD | inactive
KAARTSQGNARCVYVKGVSN | inactive
KQPCCNVFCC | 2.42 ± 0.069
TFVKSLVGGFTRNLVFLAIL | inactive
YCGEYYITGNMRLPLSTPSG | inactive
